Laboratory results: the supplement of paper PMC10201428
± gives the standard deviation of the averaged measurements.

B1: library; a variant is named by its letters at N, in order (parent)
chain: ACATTTGTTGATACAACCATAAAATGATAATTACACCCATAAATTGATAATTATCACACCCANNNNNNNNNNNNNNCTCTGATCATAGTCAGACCAACATTGCTACGACCCGTATTCGCACCGACAC

Columns and labels:
[1] = variants of: B1; assay: relative integration efficiency (T-RL orientation) vs wild-type transposon end (log2 (normalized fold change)); transposon end mutated: right end (5 bp flank + 75 bp right end); higher = more efficient transposition; conditions: with VchCAST RNA-guided transposition machinery (E. coli BL21(DE3) host, lacZ target)
Procedure: (§1)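 Pooled, barcoded VchCAST (Tn6677) mini-transposon donor libraries; each variable transposon-end sequence sits in a fixed pDonor mini-transposon context (10-bp barcode and cargo not included). Left- or right-end libraries were co-transformed with pEffector (TniQ-Cascade, TnsABC, lacZ crRNA, T7, 0.1 mM IPTG) into E. coli BL21(DE3) and grown 18 h at 37 C. T-LR and T-RL junction amplicons were sequenced; output/input barcode fold change was normalised to the mean of four wild-type barcodes and log2-transformed. Two biological replicates; zero-count/undetected variants carry floor values (-10 / -15), censored here. Barcode uncoupling by PCR recombination adds noise.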

[2] = variants of: B1; assay: relative integration efficiency (T-LR orientation) vs wild-type transposon end (log2 (normalized fold change)); transposon end mutated: right end (5 bp flank + 75 bp right end); higher = more efficient transposition; conditions: with VchCAST RNA-guided transposition machinery (E. coli BL21(DE3) host, lacZ target)
Procedure: as §1

| Variant | relative integration efficiency (log2) [1] | relative integration efficiency (log2) [2] |
| --- | --- | --- |
| TAAATTGATATTGC A56C | -0.0165 ± 0.22 | 0.317 ± 0.21 |
| TAAATTGATATTGC A27T | -0.915 ± 0.17 | -0.49 ± 0.05 |
| TTTATTGATATTGC | 0.0323 ± 0.048 | 0.91 ± 0.071 |
| CAAATTGATATTGC | -0.643 ± 0.087 | 1.861 ± 0.015 |
| ATTTAACTATAACG A19T | -1.53 ± 0.24 | 2.1 ± 0.09 |
| ATTTAACTATAACG A29T | -1.09 ± 0.32 | 2.6 ± 0.24 |
| TCAATTGATATTGC | 0.124 ± 0.1 | 2.16 ± 0.12 |
| ATTTAACTATAACG T40G | -2.18 ± 0.11 | 0.496 ± 0.47 |
| TAAATTGATATGTC | -0.17 ± 0.058 | 0.485 ± 0.25 |
| TAAATTGAGCTTGC | -0.264 ± 0.034 | 1.51 ± 0.32 |
| TAAAATGATATTGC | 0.0615 ± 0.025 | 0.274 ± 0.058 |
| TAAATTGATATTGC A24T | -0.125 ± 0.1 | -0.0829 ± 0.28 |
| ATTTAACTATAACG T54G | -1.12 ± 0.37 | 2.49 ± 0.13 |
| ATTTAACTATAACG T54A | -1.14 ± 0.19 | 2.49 ± 0.12 |
| TAAATTGATATTGC C38A | -0.117 ± 0.04 | -0.451 ± 0.24 |
| TAAATTGATATTGC A39G | -0.0861 ± 0.07 | -0.449 ± 0.17 |
| TAAATTGATATTGC A39C | -1.23 ± 0.021 | -1.05 ± 0.2 |
| TACCTTGAAATTGC C59A | -1.62 ± 0.24 | 1.94 ± 0.21 |
| TAACGGTATATTGC | -0.559 ± 0.17 | 2.2 ± 0.3 |

| Variant | relative integration efficiency (log2) [1] | relative integration efficiency (log2) [2] |
| --- | --- | --- |
| TAAATTGATATTTA | 0.1 ± 0.034 | 0.122 ± 0.099 |
| TAAATTGATATTTC | -0.0163 ± 0.045 | -0.13 ± 0.15 |
| TAAATTGATATTGC A1G | -0.139 ± 0.068 | -0.251 ± 0.32 |
| TAAATTGATATTGC A1C | -0.117 ± 0.016 | -0.165 ± 0.27 |
| ATTTAACTATAACG A35C | -0.737 ± 0.15 | 2.11 ± 0.15 |
| ATTTAACTATAACG A35T | -1 ± 0.29 | 2.07 ± 0.25 |
| TGAATTGATATTGC | -0.596 ± 0.095 | 1.91 ± 0.29 |
| TAAATTGATATTGC A50G | -0.0471 ± 0.15 | 0.0313 ± 0.15 |
| TAAATTGATATTCG | -0.0179 ± 0.025 | -0.258 ± 0.12 |
| ATTTAACTATAACG T51G | -1.67 ± 0.15 | 2.1 ± 0.14 |
| ATTTAACTATAACG T51C | -1.04 ± 0.24 | 2.48 ± 0.17 |
| ATTTAACTATAACG T51A | -1.46 ± 0.28 | 2.29 ± 0.1 |
| ATTTAACTATAACG T8G | -6.07 ± 0.37 | -5.36 ± 1.4 |
| ATTTAACTATAACG T8C | -1.8 ± 0.42 | -0.0325 ± 0.43 |
| TAAATTGATATTGC T6A | -5.81 ± 0.51 | -5.94 ± 1.9 |
| TAAATTGATATTGC T6C | -1.81 ± 0.2 | -2.11 ± 0.46 |
| TAAATTGATATTGC T6G | -6.66 ± 0.074 | -5.28 ± 0.39 |
| TAAATTGATATTGC G46A | -0.369 ± 0.054 | -0.642 ± 0.19 |
| TAAATTGATATTGC G46T | -0.423 ± 0.077 | -0.734 ± 0.14 |

| Variant | relative integration efficiency (log2) [1] | relative integration efficiency (log2) [2] |
| --- | --- | --- |
| ATTTAACTATAACG A24T | -0.752 ± 0.19 | 2.39 ± 0.024 |
| ATTTAACTATAACG T28G | -1.52 ± 0.28 | 1.89 ± 0.21 |
| ATTTAACTATAACG T28C | -1.29 ± 0.26 | 2.16 ± 0.037 |
| TAAATTGATATTGC T40G | -0.896 ± 0.09 | -1.24 ± 0.71 |
| TAAATTTATATTGC | -0.361 ± 0.18 | 1.7 ± 0.14 |
| ATTTAACTATAACG A41C | -1.53 ± 0.21 | 1.39 ± 0.29 |
| ATTTAACTATAACG A62C | -1.03 ± 0.27 | 2.22 ± 0.21 |
| TAAATTGATATTGC A19G | -0.155 ± 0.081 | -0.378 ± 0.051 |
| TAAATTGATATTGC T44G | -0.00517 ± 0.11 | -0.385 ± 0.26 |
| TAAATTGATATTGC T44A | 0.0685 ± 0.021 | -0.0417 ± 0.00085 |
| ATAATTGATATTGC | -0.135 ± 0.017 | 1.11 ± 0.1 |
| TAGATTGATATTGC | -0.557 ± 0.12 | 1.925 ± 0.0098 |
| TAAATTGATATTGC A43T | -0.127 ± 0.0053 | -0.303 ± 0.3 |
| TAAATTGATATTGC A43C | -0.127 ± 0.027 | -0.0895 ± 0.24 |
| TAAATTGATATTGC A43G | -0.0412 ± 0.15 | -0.246 ± 0.17 |
| TAAATTGATATTGC T48G | -0.12 ± 0.078 | -0.379 ± 0.13 |
| TAAATTGATATTGC T48A | 0.196 ± 0.2 | 0.629 ± 0.21 |
| TAAATTGATATTGC C59G | -0.141 ± 0.043 | 0.747 ± 0.024 |
